In US20240279281A1, “Peptide Inhibitors of Interleukin-23 Receptor” (Janssen Pharmaceutica NV, priority 2023, published 2024):
Starred links: 1 amine or outer side, 2 acyl side, 3 side chain; linkers in the order of their positions; H or OH if unused. Positions of bridges follow the written chain, without caps; N, C: chain ends. Non-standard residues stand in square brackets, D forms with d. 2Nal6(Ph4(NMorph)) = 2-amino-3-(6-(4-morpholinophenyl)naphthalen-2-yl)propanoic acid, O=C([C@H](Cc1ccc2cc(-c3ccc(N4CCOCC4)cc3)ccc2c1)N[*:1])[*:2]; TMAPF = 5-(4-(2-amino-2-carboxyethyl)phenoxy)-N,N,N-trimethylpentan-1-aminium, C[N+](C)(C)CCCCCOc1ccc(C[C@H](N[*:1])C(=O)[*:2])cc1; 6Br2Nal = 2-amino-3-(6-bromonaphthalen-2-yl)propanoic acid, O=C([C@H](Cc1ccc2cc(Br)ccc2c1)N[*:1])[*:2]; 6F2Nal = 2-amino-3-(6-fluoronaphthalen-2-yl)propanoic acid, O=C([C@H](Cc1ccc2cc(F)ccc2c1)N[*:1])[*:2]; 2Nal(6-OH) = N[C@@H](Cc1ccc2cc(O)ccc2c1)C(=O)O; Trp(7-Me) = Cc1cccc2c(C[C@H](N)C(=O)O)c[nH]c12; AEF = NCCOc1ccc(C[C@H](N)C(=O)O)cc1; 3Pal = N[C@@H](Cc1cccnc1)C(=O)O; Pen = CC(C)(S)[C@H](N)C(=O)O; Thp = NC1(C(=O)O)CCOCC1; Sar = CNCC(=O)O

Molecular target: T1, interleukin-23 receptor (IL-23R) (UniProt Q5VWK5 24-629, limits assumed)
T1 sequence (looked up): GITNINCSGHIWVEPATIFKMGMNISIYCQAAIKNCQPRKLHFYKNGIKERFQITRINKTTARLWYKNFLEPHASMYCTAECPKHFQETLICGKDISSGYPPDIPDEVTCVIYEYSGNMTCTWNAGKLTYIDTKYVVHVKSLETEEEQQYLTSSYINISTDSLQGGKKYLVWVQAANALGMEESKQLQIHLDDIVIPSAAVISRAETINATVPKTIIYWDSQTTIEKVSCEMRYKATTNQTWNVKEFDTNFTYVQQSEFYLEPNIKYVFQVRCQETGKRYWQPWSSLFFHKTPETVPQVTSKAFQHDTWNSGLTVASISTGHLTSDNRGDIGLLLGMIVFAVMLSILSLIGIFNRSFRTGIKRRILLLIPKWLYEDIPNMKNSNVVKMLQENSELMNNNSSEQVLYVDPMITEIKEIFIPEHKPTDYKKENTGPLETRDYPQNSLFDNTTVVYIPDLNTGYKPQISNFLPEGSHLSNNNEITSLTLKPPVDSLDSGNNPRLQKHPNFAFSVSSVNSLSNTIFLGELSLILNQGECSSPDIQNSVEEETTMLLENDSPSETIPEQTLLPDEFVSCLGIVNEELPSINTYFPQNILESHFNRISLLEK
Assay: cell-based or functional assay

Binder	IL23R Reporter Assay IC50 [nM]
Ac-[dR][Pen]NT[Trp(7-Me)]K(Ac)[Pen][AEF][6F2Nal][Thp]EN[3Pal][Sar]-NH2 (disulfide 2-7 (inferred)) [SEQ ID NO: 407]	< 10
Ac-[dR][Pen]NT[Trp(7-Me)]K(Ac)[Pen][AEF][2Nal(6-OH)][Thp]EN[3Pal][Sar]-NH2 (disulfide 2-7 (inferred)) [SEQ ID NO: 442]	< 10
Ac-[dR][Pen]NT[Trp(7-Me)]K(Ac)[Pen][TMAPF][2Nal(6-OH)][Thp]EN[3Pal][Sar]-NH2 (disulfide 2-7 (inferred)) [SEQ ID NO: 59]	< 10
Ac-[dR][Pen]NT[Trp(7-Me)]K(Ac)[Pen][AEF][6Br2Nal][Thp]EN[Thp]-NH2 (disulfide 2-7 (inferred)) [SEQ ID NO: 444]	≥ 100
Ac-[dR][Pen]NT[Trp(7-Me)]K(Ac)[Pen][AEF][2Nal6(Ph4(NMorph))][Thp]EN[Thp]-NH2 (disulfide 2-7 (inferred)) [SEQ ID NO: 432]	≥ 100
Ac-[Pen]NT[Trp(7-Me)]K(Ac)[Pen][AEF][2Nal(6-OH)][Thp]EN[3Pal][Sar]-NH2 (disulfide 1-6 (inferred)) [SEQ ID NO: 428]	< 10
